Patent publication US20230414735A1 (BIONTECH US, published 2023)

B1: SQIMSLWGL (peptide)
peptide: SQIMSLWGL
notes: NAB:STAT6 (variant 1 of Chmielecki et al.)

Legend:
[1] = biological target: HLA-B08:01 (human); assay: pMHC-I dissociation half-life, 125I-b2m
Procedure: Briefly, synthetic genes encoding biotinylated MHC-I heavy and light chains are expressed in E. coli and purified from inclusion bodies using standard methods. The light chain (β2m) is radio-labeled with iodine (¹²⁵I), and combined with the purified MHC-I heavy chain and peptide of interest at 18° C. to initiate pMHC-I complex formation. These reactions are carried out in streptavidin coated microplates to bind th biotinylated MHC-I heavy chains to the surface and allow measurement of radiolabeled light chain to monitor complex formation. Dissociation is initiated by addition of higher concentations of unlabled light-chain and incubation at 37° C. Stability is defined as the length of time in hours it takes for half of the complexes to dissociate, as measured by scintillation counts

[2] = biological target: HLA-B08:01 (human); assay: competition with 125I probe peptide for purified HLA class I
Procedure: (§1) Following incubation, MHC-peptide complexes are separated from free peptide by gel filtration on 7.8 mm×15 cm TSK200 columns (TosoHaas 16215, Montgomeryville, PA). Because the large size of the radiolabeled peptide used for the DRB1*1501 (DR2w2(31) assay makes separation of bound from unbound peaks more difficult under these conditions, all DRB1*1501 (DR2w2(31) assays were performed using a 7.8 mm×30 cm TSK2000 column eluted at 0.6 mLs/min. The eluate from the TSK columns is passed through a Beckman 170 radioisotope detector, and radioactivity is plotted and integrated using a Hewlett-Packard 3396A integrator, and the fraction of peptide bound is determined.
(§2) Since under these conditions [label]<[HLA] and IC₅₀≥[HLA], the measured IC₅₀ values are reasonable approximations of the true KD values. […] For database purposes, and inter-experiment comparisons, relative binding values are compiled. These values can subsequently be converted back into IC₅₀ nM values by dividing the IC₅₀ nM of the positive controls for inhibition by the relative binding of the peptide of interest.

[3] = biological target: HLA-B08:01 (human); assay: competition with 125I probe peptide on purified HLA
Procedure: Immunol. 31:813, 1994; Sidney et al., in Current Protocols in Immunology, Margulies, Ed., John Wiley & Sons, New York, Section 18.3, 1998).
as §1, §2

Binder	Stability (T1/2 (h)) [1] [h]	IC50 [2] [nM]	IC50 [3] [nM]
SLMPAHWSI (JAK1(-1))	0		
LKKLRSPL (also called SMAP1(-1))		0.6	
YLGNHMNIA (KIT, V654A)	0		872
FELLSTPPL (MYC, P57S)	0		3180
YMFLKAESKI (GATA3 CSNH)	0.4		
LSLMPAHWSI (JAK1(-1))	0		
FLLALWECSL (MSH3(-1))	0		
SLGNHLCPL (MLL2, CRLS)	0.5		
FLQEQYHEA (GATA3 YHEA)	0		
YVMAYVMAGV (HER2, G776insYVMA)	0		
B1	0		
YVMAYVMAG (HER2, G776insYVMA)	1.2		
FQNGKMALSA (FRG1B, L52S)	0		
